Test results taken from IntAct's records for PubMed 11494128.

B1: Ephrin type-B receptor 2 (Gallus gallus (Chicken)), P28693 (parent)
chain: MGPLWFCCLPLALLPLLAAVEETLMDSTTATAELGWMVHPPSGWEEVSGYDENMNTIRTYQVCNVFESSQNNWLRTKYIRRRGAHRIHVEMKFSVRDCSSIPNVPGSCKETFNLYYYESDFDSATKTFPNWMENPWMKVDTIAADESFSQVDLGGRVMKINTEVRSFGPVSKNGFYLAFQDYGGCMSLIAVRVFYRKCPRVIQNGAVFQETLSGAESTSLVAARGTCISNAEEVDVPIKLYCNGDGEWLVPIGRCMCRPGYESVENGTVCRGCPSGTFKASQGDEGCVHCPINSRTTSEGATNCVCRNGYYRADADPVDMPCTTIPSAPQAVISSVNETSLMLEWTPPRDSGGREDLVYNIICKSCGSGRGACTRCGDNVQFAPRQLGLTEPRIYISDLLAHTQYTFEIQAVNGVTDQSPFSPQFASVNITTNQAAPSAVSIMHQVSRTVDSITLSWSQPDQPNGVILDYELQYYEKNLSELNSTAVKSPTNTVTVQNLKAGTIYVFQVRARTVAGYGRYSGKMYFQTMTEAEYQTSVQEKLPLIIGSSAAGLVFLIAVVVIIIVCNRRRGFERADSEYTDKLQHYTSGHSTYRGPPPGLGVRLFVMTPGMKIYIDPFTYEDPNEAVREFAKEIDISCVKIEQVIGAGEFGEVCSGHLKLPGKREIFVAIKTLKSGYTEKQRRDFLSEASIMGQFDHPNVIHLEGVVTKSSPVMIITEFMENGSLDSFLRQNDGQFTVIQLVGMLRGIAAGMKYLADMNYVHRDLAARNILVNSNLVCKVSDFGLSRFLEDDTSDPTYTSALGGKIPIRWTAPEAIQYRKFTSASDVWSYGIVMWEVMSYGERPYWDMTNQDVINAIEQDYRLPPPMDCPNALHQLMLDCWQKDRNHRPKFGQIVNTLDKMIRNPNSLKAMAPLSSGVNLPLLDRTIPDYTSFNTVDEWLDAIKMSQYKESFASAGFTTFDIVSQMTVEDILRVGVTLAGHQKKILNSIQVMRAQMNQIQSVEV

Variants of: B1
Conditions: with abl1_mouse Abl1, P00520
Sequence of abl1_mouse Abl1, P00520 (P00520 whole entry): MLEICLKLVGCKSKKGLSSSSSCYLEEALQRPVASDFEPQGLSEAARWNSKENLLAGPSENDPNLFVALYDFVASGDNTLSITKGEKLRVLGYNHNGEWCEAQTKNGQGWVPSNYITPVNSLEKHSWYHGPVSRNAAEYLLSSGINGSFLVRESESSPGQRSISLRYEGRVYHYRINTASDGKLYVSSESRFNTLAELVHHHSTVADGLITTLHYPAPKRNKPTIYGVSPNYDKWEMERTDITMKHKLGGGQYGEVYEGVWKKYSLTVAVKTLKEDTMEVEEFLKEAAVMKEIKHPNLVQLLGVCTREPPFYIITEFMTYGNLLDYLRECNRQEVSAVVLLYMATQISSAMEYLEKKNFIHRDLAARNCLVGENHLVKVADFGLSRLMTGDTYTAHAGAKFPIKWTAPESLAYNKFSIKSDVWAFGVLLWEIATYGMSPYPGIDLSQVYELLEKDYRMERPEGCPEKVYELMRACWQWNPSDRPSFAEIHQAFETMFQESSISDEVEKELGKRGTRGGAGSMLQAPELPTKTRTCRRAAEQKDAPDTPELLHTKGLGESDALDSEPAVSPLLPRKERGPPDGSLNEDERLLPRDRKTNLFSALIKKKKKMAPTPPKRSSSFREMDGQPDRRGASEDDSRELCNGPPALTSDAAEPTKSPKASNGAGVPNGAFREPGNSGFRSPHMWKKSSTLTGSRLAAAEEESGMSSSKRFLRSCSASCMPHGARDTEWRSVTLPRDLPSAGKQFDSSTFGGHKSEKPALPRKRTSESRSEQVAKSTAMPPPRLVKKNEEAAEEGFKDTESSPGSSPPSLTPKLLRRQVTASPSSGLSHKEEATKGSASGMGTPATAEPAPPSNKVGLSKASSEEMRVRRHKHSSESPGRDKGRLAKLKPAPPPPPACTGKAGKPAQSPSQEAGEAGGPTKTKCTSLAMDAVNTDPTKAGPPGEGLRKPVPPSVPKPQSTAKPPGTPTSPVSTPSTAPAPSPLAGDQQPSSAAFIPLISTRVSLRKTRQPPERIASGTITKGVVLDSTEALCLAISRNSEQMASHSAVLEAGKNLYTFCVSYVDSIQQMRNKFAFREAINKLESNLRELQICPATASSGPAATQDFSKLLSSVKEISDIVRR

effect of a mutation on the interaction	Variant
decreasing interaction strength	Y620E
decreasing interaction strength	Y614E
disrupting interaction strength	Y614E;Y620E

Variants of: B1
Conditions: with abl1_mouse Abl1, P00520
Remark: another data set of the same source

effect of a mutation on the interaction	Variant
decreasing interaction strength	Y614E;Y620E
